Data taken from US7811569.

Target: native MSP-3 antigen of Plasmodium falciparum clone 3D7 schizonts and merozoites (Plasmodium falciparum)
Experiment: flow cytometry on ethanol-fixed permeabilized schizonts, FITC anti-human Fab

| percent of events under the bar M1 [%] | Substance |
| --- | --- |
| 2 | control Fab against HibCP |
| 4 | control antibody against HibCP in the IgG1 format |
